Laboratory results taken from article PMC3430601, “Characterization of β-N-acetylhexosaminidase (LeHex20A), a member of glycoside hydrolase family 20, from Lentinula edodes (shiitake mushroom)” (AMB Express, 2012).

Assays:
[1] = substrate: CC(=O)N[C@H]1[C@H](Oc2ccc([N+](=O)[O-])cc2)O[C@H](CO)[C@H](O)[C@@H]1O; assay: purified protein; type: biochemical, Lentinula edodes; conditions: 20 mM sodium acetate pH 4.2, 37 °C, 15 min
[2] = substrate: CC(=O)N[C@H]1[C@H](Oc2ccc([N+](=O)[O-])cc2)O[C@H](CO)[C@@H](O)[C@@H]1O; assay: purified protein; type: biochemical, Lentinula edodes; conditions: 20 mM sodium acetate pH 4.2, 37 °C, 15 min

B1: LeHex20A (Lentinula edodes) (protein)
chain: LWPLPTDFSTGTAALTLASDFDIDISAIPNPPQDLLDAISRTKGYLQTDQLEALVVDRGASYNQSLQNASSLVSLVLSYDSGVAGEPTSISEEAIDDIDSRVEGYTLTVPEDGSAATIKANSTLGLFRGLTTFGQLWYDLNNTTYTIEAPIAITDSPVFPYRGFMLDTARNYFPVSDILRTLDAMSWVKMTTFHWHMVDSQSFPLEVPEFPELSLNGAYGPSLVYSTNDVQTIVSYANARGIDVLPEIDTPGHTAIIAQAYPEHVACPGATPWATYANEPPAGQLRFANANTTNFTASLISSVSARFPGKYFSTGGDELNTECYAIDESTQADLNTTGKTLEQALDTFTQTVQSVLEDSGKTPVVWEEMVLDFNLTLSNNTIVMVWISSADAAAVADKGFRLVQAPSDYFYLDCGAGGWVGANPSGNSWCDPFKTWQYAYSFDPVANLTDAQAKLVIGGEHLLWTEQSHASNLDSIVWPRAAASAELFWSGPGGNISEALPRLHDVAFRMTQRGVGAIALQPLWCALRPGVCDLTA
notes: native, purified from fruiting bodies; secreted mature form, 17-residue signal peptide predicted (ORF 553 aa, mature 536 aa); N-terminus LWPLPTDFSTGTAAL; 79 kDa on SDS-PAGE (58 kDa calculated, glycosylated); GH20
B1 was tested, and the Km [1] was 430 ± 30 µM, the kcat [1] was 177 ± 8 s⁻¹ and the kcat/Km [1] was 411000 M⁻¹ s⁻¹. For the same protein, the Km [2] was 340 ± 10 µM, the kcat [2] was 335 ± 10 s⁻¹ and the kcat/Km [2] was 983000 M⁻¹ s⁻¹.
